Results taken from patent US20250171562A1 (ALK ABELL, published 2025).
Changes are numbered by the printed parent chain. Numbers in names are those of the source.

B1: CIgG4E4A1(G4S)3 (Fc fusion)
chain 1: GPPCPPCPAPEFLGGPSVFLFPPKPKDTLMISRTPEVTCVVVDVSQEDPEVQFNWYVDGVEVHNAKTKPREEQFNSTYRVVSVLTVLHQDWLNGKEYKCKVSNKGLPSSIEKTISKAKGQPREPQVYTLPPCQEEMTKNQVSLWCLVKGFYPSDIAVEWESNGQPENNYKTTPPVLDSDGSFFLYSRLTVDKSRWQEGNVFSCSVMHEALHNHYTQKSLSLSLGKGGGGSGGGGSGGGGSDVQLQESGGGLVQPGGSLRLSCAASGFRFSNYAMRWYRQAPGKEREFVARISSTGFITRYTASVRDRFTISRDNDKNMMYLQLNKLTPQDTAHYYCNAESTDYWGQGTQVTVS
chain 2: GPPCPPCPAPEFLGGPSVFLFPPKPKDTLMISRTPEVTCVVVDVSQEDPEVQFNWYVDGVEVHNAKTKPREEQFNSTYRVVSVLTVLHQDWLNGKEYKCKVSNKGLPSSIEKTISKAKGQPREPQVCTLPPSQEEMTKNQVSLSCAVKGFYPSDIAVEWESNGQPENNYKTTPPVLDSDGSFFLVSRLTVDKSRWQEGNVFSCSVMHEALHNHYTQKSLSLSLGKGGGGSGGGGSGGGGSEVQLLESGGGLVQPGGSLRLSCAASGFTFGNYDMAWVRQAPGKRPEWVSSIDTGGDITHYADSVKGRFTISRDNAKNTLYLQMNSLRPEDTAVYWCATDEEYALGPNEFDYYGQGTLVTVSS
B2: CIgG4F1A1(G4S)3 (Fc fusion)
chain 1: GPPCPPCPAPEFLGGPSVFLFPPKPKDTLMISRTPEVTCVVVDVSQEDPEVQFNWYVDGVEVHNAKTKPREEQFNSTYRVVSVLTVLHQDWLNGKEYKCKVSNKGLPSSIEKTISKAKGQPREPQVYTLPPCQEEMTKNQVSLWCLVKGFYPSDIAVEWESNGQPENNYKTTPPVLDSDGSFFLYSRLTVDKSRWQEGNVFSCSVMHEALHNHYTQKSLSLSLGKGGGGSGGGGSGGGGSDVQLQESGGGLVQAGGSLKLSCAASGGSLSRYDMGWFRQAPGKEREFVARISWSGTTKYYADAVKGRFAISRDNAKNTVYLQMNSLKPEDTAVYYCAAAFYGNRGYYDVNAYTSSGQGTQVTVS
chain 2: B1 chain 2
B3: CIgG4F1A1(G4S)1 (Fc fusion)
chain 1: GPPCPPCPAPEFLGGPSVFLFPPKPKDTLMISRTPEVTCVVVDVSQEDPEVQFNWYVDGVEVHNAKTKPREEQFNSTYRVVSVLTVLHQDWLNGKEYKCKVSNKGLPSSIEKTISKAKGQPREPQVYTLPPCQEEMTKNQVSLWCLVKGFYPSDIAVEWESNGQPENNYKTTPPVLDSDGSFFLYSRLTVDKSRWQEGNVFSCSVMHEALHNHYTQKSLSLSLGKGGGGSDVQLQESGGGLVQAGGSLKLSCAASGGSLSRYDMGWFRQAPGKEREFVARISWSGTTKYYADAVKGRFAISRDNAKNTVYLQMNSLKPEDTAVYYCAAAFYGNRGYYDVNAYTSSGQGTQVTVS
chain 2: GPPCPPCPAPEFLGGPSVFLFPPKPKDTLMISRTPEVTCVVVDVSQEDPEVQFNWYVDGVEVHNAKTKPREEQFNSTYRVVSVLTVLHQDWLNGKEYKCKVSNKGLPSSIEKTISKAKGQPREPQVCTLPPSQEEMTKNQVSLSCAVKGFYPSDIAVEWESNGQPENNYKTTPPVLDSDGSFFLVSRLTVDKSRWQEGNVFSCSVMHEALHNHYTQKSLSLSLGKGGGGSEVQLLESGGGLVQPGGSLRLSCAASGFTFGNYDMAWVRQAPGKRPEWVSSIDTGGDITHYADSVKGRFTISRDNAKNTLYLQMNSLRPEDTAVYWCATDEEYALGPNEFDYYGQGTLVTVSS
B4: CIgG4F2A1(G4S)1 (Fc fusion)
chain 1: B3 chain 1 with T286D, K295E, K306Q, A328V, F330L, A341T, T343S, S344Y, S345W, Q350R
chain 2: B3 chain 2
B5: CIgG4F1A1(RS) (Fc fusion)
chain 1: GPPCPPCPAPEFLGGPSVFLFPPKPKDTLMISRTPEVTCVVVDVSQEDPEVQFNWYVDGVEVHNAKTKPREEQFNSTYRVVSVLTVLHQDWLNGKEYKCKVSNKGLPSSIEKTISKAKGQPREPQVYTLPPCQEEMTKNQVSLWCLVKGFYPSDIAVEWESNGQPENNYKTTPPVLDSDGSFFLYSRLTVDKSRWQEGNVFSCSVMHEALHNHYTQKSLSLSLGKRSDVQLQESGGGLVQAGGSLKLSCAASGGSLSRYDMGWFRQAPGKEREFVARISWSGTTKYYADAVKGRFAISRDNAKNTVYLQMNSLKPEDTAVYYCAAAFYGNRGYYDVNAYTSSGQGTQVTVS
chain 2: GPPCPPCPAPEFLGGPSVFLFPPKPKDTLMISRTPEVTCVVVDVSQEDPEVQFNWYVDGVEVHNAKTKPREEQFNSTYRVVSVLTVLHQDWLNGKEYKCKVSNKGLPSSIEKTISKAKGQPREPQVCTLPPSQEEMTKNQVSLSCAVKGFYPSDIAVEWESNGQPENNYKTTPPVLDSDGSFFLVSRLTVDKSRWQEGNVFSCSVMHEALHNHYTQKSLSLSLGKRSEVQLLESGGGLVQPGGSLRLSCAASGFTFGNYDMAWVRQAPGKRPEWVSSIDTGGDITHYADSVKGRFTISRDNAKNTLYLQMNSLRPEDTAVYWCATDEEYALGPNEFDYYGQGTLVTVSS
B6: CIgG4F2A1(RS) (Fc fusion)
chain 1: B5 chain 1 with T283D, K292E, K303Q, A325V, F327L, A338T, T340S, S341Y, S342W, Q347R
chain 2: B5 chain 2
B7: CIgG4F1A1(G4S)2 (Fc fusion)
chain 1: GPPCPPCPAPEFLGGPSVFLFPPKPKDTLMISRTPEVTCVVVDVSQEDPEVQFNWYVDGVEVHNAKTKPREEQFNSTYRVVSVLTVLHQDWLNGKEYKCKVSNKGLPSSIEKTISKAKGQPREPQVYTLPPCQEEMTKNQVSLWCLVKGFYPSDIAVEWESNGQPENNYKTTPPVLDSDGSFFLYSRLTVDKSRWQEGNVFSCSVMHEALHNHYTQKSLSLSLGKGGGGSGGGGSDVQLQESGGGLVQAGGSLKLSCAASGGSLSRYDMGWFRQAPGKEREFVARISWSGTTKYYADAVKGRFAISRDNAKNTVYLQMNSLKPEDTAVYYCAAAFYGNRGYYDVNAYTSSGQGTQVTVS
chain 2: GPPCPPCPAPEFLGGPSVFLFPPKPKDTLMISRTPEVTCVVVDVSQEDPEVQFNWYVDGVEVHNAKTKPREEQFNSTYRVVSVLTVLHQDWLNGKEYKCKVSNKGLPSSIEKTISKAKGQPREPQVCTLPPSQEEMTKNQVSLSCAVKGFYPSDIAVEWESNGQPENNYKTTPPVLDSDGSFFLVSRLTVDKSRWQEGNVFSCSVMHEALHNHYTQKSLSLSLGKGGGGSGGGGSEVQLLESGGGLVQPGGSLRLSCAASGFTFGNYDMAWVRQAPGKRPEWVSSIDTGGDITHYADSVKGRFTISRDNAKNTLYLQMNSLRPEDTAVYWCATDEEYALGPNEFDYYGQGTLVTVSS
B8: CIgG4F2A1(G4S)2 (Fc fusion)
chain 1: B7 chain 1 with T291D, K300E, K311Q, A333V, F335L, A346T, T348S, S349Y, S350W, Q355R
chain 2: B7 chain 2

What follows are binders tested against T1, recombinant human IgE (human, UniProt P01854-1 1-428) (assay: IgE-FcεRIα displacement ELISA).
T1 construct: made in-house (ALK); preloaded on immobilised FcεRIα in the displacement ELISA
T1 sequence (P01854 other isoform, or with tags, fused parts or gaps): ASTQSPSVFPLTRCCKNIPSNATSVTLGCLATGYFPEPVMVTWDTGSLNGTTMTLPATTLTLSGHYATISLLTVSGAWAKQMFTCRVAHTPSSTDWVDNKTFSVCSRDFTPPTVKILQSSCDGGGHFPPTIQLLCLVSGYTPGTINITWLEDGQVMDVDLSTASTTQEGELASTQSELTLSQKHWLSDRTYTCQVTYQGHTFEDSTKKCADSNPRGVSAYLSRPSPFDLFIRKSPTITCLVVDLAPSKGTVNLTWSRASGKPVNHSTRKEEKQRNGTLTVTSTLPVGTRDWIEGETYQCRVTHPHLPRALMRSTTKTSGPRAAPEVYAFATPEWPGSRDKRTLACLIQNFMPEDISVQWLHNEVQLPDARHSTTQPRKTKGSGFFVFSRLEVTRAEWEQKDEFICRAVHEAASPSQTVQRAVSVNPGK
Outline: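 sdAbs at pM–μM were incubated 1 h on preformed complexes of 13 ng/ml recombinant human IgE with avi-tag-biotinylated human FcεRIα captured on streptavidin.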

| EC50 | Max effect | Binder |
| --- | --- | --- |
| 22 nM | 95% | B1 |
| 480 nM | 65% | B2 |
| – | 30% | B3 |
| – | 20% | B4 |
| – | 0% | B5 |
| – | 10% | B6 |
| 800 nM | 55% | B7 |
| – | 35% | B8 |
